Broadly, the Kd is the equilibrium constant for the complex coming apart.

This is an account of results in publication PMC5566439 (2017).

The target of this test is T1, AlkG (rubredoxin-2) (Pseudomonas putida, UniProt Q9WWW4).
T1 chain: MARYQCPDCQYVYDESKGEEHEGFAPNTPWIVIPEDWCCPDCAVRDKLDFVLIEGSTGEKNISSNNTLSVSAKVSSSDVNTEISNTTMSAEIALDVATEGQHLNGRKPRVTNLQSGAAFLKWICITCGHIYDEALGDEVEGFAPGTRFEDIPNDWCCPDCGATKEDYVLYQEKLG
The test is described as follows: electrochemical activity titration on AlkG-immobilized screen-printed carbon electrode (one-site and two-site binding model fits).

B1: AlkB (protein)
chain: MNGKSSVLDSAPEYVDKKKYFWILSTFWPATPMIGIWLANETGWGIFYGLVLAVWYGVLPLLDAMFGEDFNNPPEEVVEKLEKERYYRVLTYLTVPMHYAALIVSAWWVGTQSMSWFEIVALALSLGIVNGLALNTGHELGHKKEAFDRWMAKIVLAVVGYGHFFIEHNKGHHRDVATPMDPATSRMGENIYKFSTREIPGAFRRAWGLEEQRLSRRGQSVWSFDNEILQPMVITVVLYTLLLAFFGPKMLVFLPIQMAFGWWQLTSANYIEHYGLLREKMADGRYEHQKPHHSWNSNHIVSNLVLFHLQRHSDHHAHPTRSYQSLRDFPGLPALPTGYPGAFLMAMIPQWFRSVMDPKVVNWANGDLSKIQIEDSMRAEYIKKFTHNVGADDKRGATAVAS
Regarding B1, binding was characterised by a dissociation constant (Kd) of 268 µM.
